“And” between values parts separate entries of the source, which are not always exact repeats. Equal values may be shown once.
B1: CoV2-06 (antibody, V domains shown)
VH: QVELQESGPGLVKPSGTLSLTCAVSGGSISSNNWWTWVRQPPGKGLEWIGEIHHSGGTNYNPSLKSRVTMSVDKSKNQFSLNLYSVTAADTAVYYCTRDRAGGTYSGFDFWGQGTLVTVSS
VL: QAVVTQPASVSGSPGQSITISCTGTSSDVGGYNYVSWYQQHPGKAPKLMIYDVSNRPSGVSNRFSGSKSGNTASLTISGLQAEDEADYYCSSYTSSSTVVFGGGTKVTVL
B2: CoV2-14 (antibody, V domains shown)
VH: EVQLQQSGPGLVKPSQTLSLTCAISGDSVSSNSAAWNWIRQSPSRGLEWLGRTYYRSKWYNDYAVSVKSRITINPDTSKNQFSLQLNSVTPEDTAVYYCAREEQQLVHDYYYYGMDVWGQGTMVTVSS
VL: QAVVTQPASVSGSPGQSITISCTGTSSDIGAYNYISWYQQHPGKAPKLIIYEVSNRPSGISYRFSGSKSGNTASLTISGLQAEDEANYYCSSYAGSISFGGGTKVTVL

Key:
[1] = target: T1, His-tagged RBD (RBD-His) protein of SARS-CoV-2 (SARS-CoV-2, UniProt P0DTC2 319-541); test: BLI
[2] = target: T1, His-tagged RBD (RBD-His) protein of …; test: BLI; remark: listed apart in the source

| Binder | Kd [1] | koff [2] |
| --- | --- | --- |
| B1 | 0.27 nM and 0.09 nM | – |
| B2 | 0.62 nM and 0.58 nM | 0.000222 s⁻¹ and 0.000552 s⁻¹ |

From article PMC9499943 (2022)
